Laboratory results as given in patent US20220378833A1 (Novartis, published 2022).

B1: His-FLAG-FRB (wild-type FRB) (other)
chain: MGHHHHHHHHGSDYKDDDDKGSASRILWHEMWHEGLEEASRLYFGERNVKGMFEVLEPLHAMMERGPQTLKETSFNQAYGRDLMEAQEWCRKYMKSGNVKDLTQAWDLYYHVFRRISKTS
notes: also called wild type Flag-FRB
B2: His-FLAG-FRB E2032I (other)
chain: MGHHHHHHHHGSDYKDDDDKGSASRILWHEMWHEGLIEASRLYFGERNVKGMFEVLEPLHAMMERGPQTLKETSFNQAYGRDLMEAQEWCRKYMKSGNVKDLTQAWDLYYHVFRRISKTS
notes: also called E20321 (OCR form)
B3: His-FLAG-FRB E2032L (other)
chain: MGHHHHHHHHGSDYKDDDDKGSASRILWHEMWHEGLLEASRLYFGERNVKGMFEVLEPLHAMMERGPQTLKETSFNQAYGRDLMEAQEWCRKYMKSGNVKDLTQAWDLYYHVFRRISKTS
B4: His-FLAG-FRB T2098L (other)
chain: MGHHHHHHHHGSDYKDDDDKGSASRILWHEMWHEGLEEASRLYFGERNVKGMFEVLEPLHAMMERGPQTLKETSFNQAYGRDLMEAQEWCRKYMKSGNVKDLLQAWDLYYHVFRRISKTS

How the values were obtained:
[1] = biological target: T1, His-Avidin-FKBP (wild-type FKBP) (biotinylated (residue not stated; construct carries an avi-tag)); experiment: AlphaLISA direct assay: 30 nM Flag-FRB and 30 nM biotinylated FKBP; the titrated species is everolimus (EC50 is an everolimus concentration)
T1 construct: also called biotinylated wild-type FKBP; biotinylated FKBP
T1 sequence (chain, as listed by the source limits assumed): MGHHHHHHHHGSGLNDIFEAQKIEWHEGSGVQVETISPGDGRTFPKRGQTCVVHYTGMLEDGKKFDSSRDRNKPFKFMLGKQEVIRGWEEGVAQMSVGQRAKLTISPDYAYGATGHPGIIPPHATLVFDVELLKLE
Procedure: (§1) FRB mutations were also ranked in an alternative assay format. […] All dilutions were made in 1 × AlphaLISA Immunoassay buffer (PerkinElmer). Anti-Flag acceptor beads (PerkinElmer) were added at 10 ug/ml final concentration and incubated for one hour at room temperature. Streptavidin donor beads (PerkinElmer), were then added at a final concentration of 40 ug/ml and the plate was protected from light and incubated for 30 minutes at room temperature. The plate was then read on the PerkinElmer EnVision Multiplate reader equipped with the Alpha Module using excitation of 680 nm and a 570 nm Emission filter.

[2] = biological target: T1, His-Avidin-FKBP (wild-type FKBP); experiment: AlphaLISA direct assay, Flag-FRB and biotinylated FKBP, everolimus titrated
Procedure: as §1

Binder | EC50 [1] | fold improvement over wild type FRB [2]
B1 | 3.9 nM | –
B2 | 2.46 nM | –
B3 | 2.15 nM | –
B4 | 1.44 nM | 3 fold
